Read-outs that look alike come from different tables or passages of the source.
Legend:
[1] = Ex vivo hydrolysis in rat plasma at 37° C.; type: in vitro ADME; conditions: Table 2 conjugates, average of three experiments ± s. d.
Procedure: Experiments using rat plasma were conducted in similar fashion to the esterase hydrolysis experiments. A stock, or reference, solution of each conjugate was made that was ˜15 mg/mL in DMSO. Two hundred microliters of stock were added to 800 μL 50 mM PBS buffer. Fifty microliters of this latter solution were added to 950 μL rat plasma and placed at 37° C. in a reciprocal waterbath shaker. At the appropriate time intervals, a 50 μl, aliquot was taken, added to 100 μl, ACN, and vigorously vortexed for 1 minute. The sample was centrifuged at 10,000 rpm for 5 minutes and 50 μL, of supernatant was then injected for HPLC analysis. A calibration curve for measuring the concentration of each conjugate was made.

[2] = biological target: T1, rabbit liver carboxylesterase (Oryctolagus cuniculus, UniProt P12337); assay: in vitro; conditions: purified rabbit liver carboxylesterase in PBS buffer, pH 7.4
Procedure: (§1) Stock, or reference, solutions of hydrolyzable conjugates were first prepared at ˜2 mg/mL in DMSO. Working solutions of the hydrolyzable conjugates were then prepared in triplicate (working solutions A). Fifty microliters of stock conjugate were added to 5.0 mL 50 mM PBS buffer.
(§2) A stock solution of carboxylesterase was prepared by adding ˜2 mg esterase to 2.0 mL 50 mM PBS buffer. A working solution of carboxylesterase was prepared by diluting 50 uL of the stock solution with 5.0 mL 50 mM PBS buffer (working solution B).
(§3) Five hundred microliters of working solution B were then added to each working solution A (0.5 units enzyme and between 10-20 μM conjugate). The reaction mixtures were immediately vortexed and sampled for a time=0 analysis. The reaction solutions were incubated at 37° C. in a reciprocal waterbath shaker. At appropriate time intervals during incubation, 75 μL aliquots were taken and injected directly on HPLC for hydrolysis rate data. With each experiment, a new calibration curve for the particular conjugate was made.
(§4) The pseudo first-order rate constant, or “k”, is obtained from the slope of the natural log of the concentration of the conjugate versus time curve. The half-life is then calculated from k.

[3] = biological target: T1, rabbit liver carboxylesterase; conditions: pH 7.4
Procedure: as §1, §2, §3, §4

T1 sequence (P12337 19-565): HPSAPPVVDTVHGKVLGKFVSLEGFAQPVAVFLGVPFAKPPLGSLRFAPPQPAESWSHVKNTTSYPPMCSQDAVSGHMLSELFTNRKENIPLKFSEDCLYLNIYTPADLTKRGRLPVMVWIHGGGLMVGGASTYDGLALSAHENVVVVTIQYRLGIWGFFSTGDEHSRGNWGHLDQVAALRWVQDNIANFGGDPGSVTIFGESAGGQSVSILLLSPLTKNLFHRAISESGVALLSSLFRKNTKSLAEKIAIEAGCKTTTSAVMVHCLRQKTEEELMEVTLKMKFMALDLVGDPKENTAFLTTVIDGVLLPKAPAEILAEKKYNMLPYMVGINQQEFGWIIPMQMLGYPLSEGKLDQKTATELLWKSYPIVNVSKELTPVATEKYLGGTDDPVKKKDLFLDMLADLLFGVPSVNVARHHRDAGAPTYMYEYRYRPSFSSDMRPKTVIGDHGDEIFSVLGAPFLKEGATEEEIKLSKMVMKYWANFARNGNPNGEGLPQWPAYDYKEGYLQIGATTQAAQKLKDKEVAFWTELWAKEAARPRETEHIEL

Compound | half-life at […] [1] [h] | half-life [2] [h] | t1/2 [1] | half-life [3] [h] | half-life [1] [h]
COCCOCCOCCOCCOc1ccc(OC(=O)N[C@@H](Cc2ccc(O)cc2)C(=O)NCC(=O)NCC(=O)N[C@@H](Cc2ccccc2)C(=O)N[C@@H](CC(C)C)C(=O)O)cc1 | 0.912 ± 0.0723 | 6.9 ± 0.1 | – | – | –
CCCCCCCCCCCCOCCOCCOCCOCCOCCOCCOCCOCCOc1ccc(OC(=O)N[C@@H](Cc2ccc(O)cc2)C(=O)NCC(=O)NCC(=O)N[C@@H](Cc2ccccc2)C(=O)N[C@@H](CC(C)C)C(=O)O)cc1 | 2.33 ± 0.0723 | 10.4 ± 0.9 | – | – | –
COCCOCCOCCOCCNC(=O)c1ccc(OC(=O)N[C@@H](Cc2ccc(O)cc2)C(=O)NCC(=O)NCC(=O)N[C@@H](Cc2ccccc2)C(=O)N[C@@H](CC(C)C)C(=O)O)cc1 | – | 0.04 ± 0.17 | ~Immediate Hydrolysis | – | –
COCCOCCOCCOCCOC(=O)NC(Cc1ccc(OC(=O)N[C@@H](Cc2ccc(O)cc2)C(=O)NCC(=O)NCC(=O)N[C@@H](Cc2ccccc2)C(=O)N[C@@H](CC(C)C)C(=O)O)cc1)C(=O)OC (some centres unmarked) | 0.251 ± 0.0772 | 1.3 ± 0.04 | – | – | –
COCCOCCOCCOCCNC(=O)c1cc(OC(=O)N[C@@H](Cc2ccc(O)cc2)C(=O)NCC(=O)NCC(=O)N[C@@H](Cc2ccccc2)C(=O)N[C@@H](CC(C)C)C(=O)O)cc(C(=O)NCCOCCOCCOCCOC)c1 | – | 0.03 ± 0.12 | ~Immediate Hydrolysis | – | –
COCCOCCOCCOCCOc1ccc(OC(=O)N[C@@H](Cc2ccc(O)cc2)C(=O)NCC(=O)NCC(=O)N[C@@H](Cc2ccccc2)C(=O)N[C@@H](CC(C)C)C(=O)O)cc1OCCOC | – | – | – | 2.7 ± 0.2 | 0.354 ± 0.0667
COCCOCCOCCOCCOCc1ccc(OC(=O)N[C@@H](Cc2ccc(O)cc2)C(=O)NCC(=O)NCC(=O)N[C@@H](Cc2ccccc2)C(=O)N[C@@H](CC(C)C)C(=O)O)cc1 | 0.027 ± 0.00733 | 1.4 ± 0.1 | – | – | –
